Experimental data reported in patent US20150299268A1 (UNIVERSITY OF MARYLAND BALTIMORE, published 2015).

Tests used:
[1] = target: T1, BaL-gp120-V44A (HIV-1 BaL); experiment: capture ELISA
T1 construct: domain: gp120

[2] = target: T2, BaL-gp120-R476AR480A (HIV-1 BaL); experiment: capture ELISA
T2 construct: domain: gp120

[3] = target: T3, BaL-gp120-H105A (HIV-1 BaL); experiment: capture ELISA
T3 construct: domain: gp120

[4] = target: T4, BaL-gp120-T455A (HIV-1 BaL); experiment: capture ELISA
T4 construct: domain: gp120

[5] = target: BaL-gp120-dV3 (HIV-1 BaL); experiment: capture ELISA
[6] = target: T5, BaL-gp120-P498A (HIV-1 BaL); experiment: capture ELISA
T5 construct: domain: gp120

[7] = target: T6, BaL-gp120-D57AD62A (HIV-1 BaL); experiment: capture ELISA
T6 construct: domain: gp120

[8] = target: BaL-gp120-dV1 (HIV-1 BaL); experiment: capture ELISA
[9] = target: T7, BaL-gp120-E106AD107A (HIV-1 BaL); experiment: capture ELISA
T7 construct: domain: gp120

[10] = target: T8, BaL-gp120-D78A (HIV-1 BaL); experiment: capture ELISA
T8 construct: domain: gp120

[11] = target: T9, BaL-gp120-E31A (HIV-1 BaL); experiment: capture ELISA
T9 construct: domain: gp120

[12] = target: T10, BaL-gp120-K487AK490A (HIV-1 BaL); experiment: capture ELISA
T10 construct: domain: gp120

[13] = target: T11, BaL-gp120-I420R (HIV-1 BaL); experiment: capture ELISA
T11 construct: domain: gp120; also called -1420R

[14] = target: T12, BaL-gp120-E32A (HIV-1 BaL); experiment: capture ELISA
T12 construct: domain: gp120

[15] = target: BaL-gp120-dV2 (HIV-1 BaL); experiment: capture ELISA
[16] = target: T13, BaL-gp120-I491A (HIV-1 BaL); experiment: capture ELISA
T13 construct: domain: gp120

[17] = target: T14, BaL-gp120-F53A (HIV-1 BaL); experiment: capture ELISA
T14 construct: domain: gp120

[18] = target: BaL-gp120-mV3 (HIV-1 BaL); experiment: capture ELISA
[19] = target: core-D7 (HIV-1); experiment: capture ELISA
[20] = target: core-V3-D7 (HIV-1); experiment: capture ELISA
[21] = target: T15, BaL-gp120-D62A (HIV-1 BaL); experiment: capture ELISA
T15 construct: domain: gp120

[22] = target: T16, BaL-gp120-E47A (HIV-1 BaL); experiment: capture ELISA
T16 construct: domain: gp120

[23] = target: T17, BaL-gp120-D57A (HIV-1 BaL); experiment: capture ELISA
T17 construct: domain: gp120

[24] = target: T18, BaL-gp120-V496A (HIV-1 BaL); experiment: capture ELISA
T18 construct: domain: gp120

[25] = target: T19, BaL-gp120-K46A (HIV-1 BaL); experiment: capture ELISA
T19 construct: domain: gp120

[26] = target: T20, BaL-gp120 (HIV-1 BaL); experiment: capture ELISA
T20 construct: domain: gp120; also called monomeric gp120; monomeric BaL gp120

[27] = target: T21, BaL-gp120-I423A (HIV-1 BaL); experiment: capture ELISA
T21 construct: domain: gp120

[28] = target: T22, BaL-gp120-V68A (HIV-1 BaL); experiment: capture ELISA
T22 construct: domain: gp120

[29] = target: T23, BaL-gp120-L494A (HIV-1 BaL); experiment: capture ELISA
T23 construct: domain: gp120

[30] = target: T24, BaL-gp120-T499A (HIV-1 BaL); experiment: capture ELISA
T24 construct: domain: gp120

[31] = target: T25, BaL-gp120-G495A (HIV-1 BaL); experiment: capture ELISA
T25 construct: domain: gp120

[32] = target: T26, BaL-gp120-T162A (HIV-1 BaL); experiment: capture ELISA
T26 construct: domain: gp120; glycan mutant

[33] = target: T27, BaL-gp120-P76A (HIV-1 BaL); experiment: capture ELISA
T27 construct: domain: gp120

[34] = target: core-V1V2-D7 (HIV-1); experiment: capture ELISA
[35] = target: T28, BaL-gp120-R476A (HIV-1 BaL); experiment: capture ELISA
T28 construct: domain: gp120

[36] = target: T29, BaL-gp120-K500A (HIV-1 BaL); experiment: capture ELISA
T29 construct: domain: gp120

[37] = target: T30, BaL-gp120-D57AD78A (HIV-1 BaL); experiment: capture ELISA
T30 construct: domain: gp120

[38] = target: T31, BaL-gp120-P493A (HIV-1 BaL); experiment: capture ELISA
T31 construct: domain: gp120

[39] = target: T32, BaL-gp120-E47AE91A (HIV-1 BaL); experiment: capture ELISA
T32 construct: domain: gp120

[40] = target: T33, BaL-gp120-W35A (HIV-1 BaL); experiment: capture ELISA
T33 construct: domain: gp120

[41] = target: T34, BaL-gp120-T303A (HIV-1 BaL); experiment: capture ELISA
T34 construct: domain: gp120; glycan mutant, V3 region

[42] = target: T35, BaL-gp120-S158A (HIV-1 BaL); experiment: capture ELISA
T35 construct: domain: gp120

[43] = target: T36, BaL-gp120-S200A (HIV-1 BaL); experiment: capture ELISA
T36 construct: domain: gp120; also called 5200A

[44] = target: T37, BaL-gp120-V75A (HIV-1 BaL); experiment: capture ELISA
T37 construct: domain: gp120

[45] = target: T38, BaL-gp120-W69A (HIV-1 BaL); experiment: capture ELISA
T38 construct: domain: gp120

[46] = target: T39, BaL-gp120-W45A (HIV-1 BaL); experiment: capture ELISA
T39 construct: domain: gp120

[47] = target: T40, BaL-gp120-R58AK59A (HIV-1 BaL); experiment: capture ELISA
T40 construct: domain: gp120

[48] = target: T41, BaL-gp120-K33A (HIV-1 BaL); experiment: capture ELISA
T41 construct: domain: gp120

[49] = target: T42, BaL-gp120-Y61A (HIV-1 BaL); experiment: capture ELISA
T42 construct: domain: gp120

[50] = target: T43, BaL-gp120-Y39A (HIV-1 BaL); experiment: capture ELISA
T43 construct: domain: gp120

[51] = target: T44, BaL-gp120-Y40A (HIV-1 BaL); experiment: capture ELISA
T44 construct: domain: gp120

[52] = target: T45, BaL-gp120-E492A (HIV-1 BaL); experiment: capture ELISA
T45 construct: domain: gp120

[53] = target: gp120-JR48.1-ScFV; experiment: ELISA
[54] = target: gp120-b12-ScFV; experiment: ELISA
[55] = target: T20, BaL-gp120; experiment: ELISA
[56] = target: gp120-JR4-ScFV; experiment: ELISA
[57] = target: T46, FLSC R/T (HIV-1, UniProt P01730 26-208); experiment: ELISA
T46 construct: not shown: linker of FLSC not described

[58] = target: gp120-JR4-ScFV; experiment: ELISA; remark: listed apart in the source

B1: b12 (antibody, V domains shown)
VH: QVQLVQSGAEVKKPGASVKVSCQASGYRFSNFVIHWVRQAPGQRFEWMGWINPYNGNKEFSAKFQDRVTFTADTSANTAYMELRSLRSADTAVYYCARVGPYSWDDSPQDNYYMDVWGKGTTVIVSS
VL: EIVLTQSPGTLSLSPGERATFSCRSSHSIRSRRVAWYQHKPGQAPRLVIHGVSNRASGISDRFSGSGSGTDFTLTITRVEPEDFALYYCQVYGASSYTFGQGTKLERK
% Binding [1]: 94% | % Binding [2]: 68% | % Binding [3]: 100% | % Binding [4]: 90% | % Binding [5]: 109% | % Binding [6]: 97% | % Binding [7]: 103% | % Binding [8]: 90% | % Binding [9]: 80% | % Binding [10]: 92% | % Binding [11]: 86% | % Binding [12]: 85% | % Binding [13]: 101% | % Binding [14]: 104% | % Binding [15]: 87% | % Binding [16]: 98% | % Binding [17]: 91% | % Binding [18]: 100% | % Binding [19]: 106% | % Binding [20]: 102% | % Binding [21]: 98% | % Binding [22]: 100% | % Binding [23]: 95% | % Binding [24]: 100% | % Binding [25]: 93% | % Binding [26]: 100% | % Binding [27]: 96% | % Binding [28]: 83% | % Binding [29]: 95% | % Binding [30]: 107% | % Binding [31]: 90% | % Binding [32]: 110% | % Binding [33]: 96% | % Binding [34]: 103% | % Binding [35]: 101% | % Binding [36]: 93% | % Binding [37]: 96% | % Binding [38]: 95% | % Binding [39]: 86% | % Binding [40]: 107% | % Binding [41]: 92% | % Binding [42]: 80% | % Binding [43]: 86% | % Binding [44]: 93% | % Binding [45]: 97% | % Binding [46]: 96% | % Binding [47]: 101% | % Binding [48]: 89% | % Binding [49]: 85% | % Binding [50]: 90% | % Binding [51]: 106% | % Binding [52]: 105%

B2: JR4 (antibody, V domains shown)
VH: EVQLVESGPGLVKPLETLSLTCAVPGGSIRRNYWSWIRQPPGKGLEWIGHSYGSGGSTNYNPSLESRVTLSVDTSKNLFSLKLTSVTAADTAVYYCARTVWYYTSGTHYFDHWGQGVLVTVSS
VL: QSVLTQPPSVSAAPGQKVTISCSGSSSNIGRSYVSWYQQVPGAAPKLLIYDTNKRPSGVSDRFSGSKSGSSASLAITGLQTGDEADYYCGAWDGSLNVHIFGSGTKLTVL
Fold of Ab needed for ELISA binding OD equal to half max on gp120 [53]: 0.21 fold | Fold of Ab needed for ELISA binding OD equal to half max on gp120 [54]: 0.09 fold | Fold of Ab needed for ELISA binding OD equal to half max on gp120 [55]: 1 fold | Fold of Ab needed for ELISA binding OD equal to half max on gp120 [56]: > 100 fold | Fold of Ab needed for ELISA binding OD equal to half max on gp120 [57]: 0.11 fold | binding result [58]: no binding (tested: >100 fold of the Ab needed on gp120)
